The target of one test is CD40 receptor on cells (human, UniProt P25942 21-277). The test is described as follows: cell-based or functional assay.
Another test has as its target T1, CD40-Fc (human, UniProt P25942 21-193).
T1 construct: extracellular domain; hinge included for covalent assembly; also called CD40 receptor-Fc fusion protein; not shown: human Fc gamma 1 region including the hinge region
Put plainly: ELISA, coated receptor-Fc. How it is done:
(§1) Receptor binding of the EHD2-scDuokines was analyzed by ELISA using fusion proteins of the extracellular region of CD40, CD27 and 4-1BB, respectively, with the human Fcγ1 region including the hinge region for covalent assembly (CD40-Fc, CD27-Fc, 4-1BB-Fc). Receptor-Fc fusion proteins (200 ng/well) were coated overnight at 4° C. and remaining binding sites were blocked with PBS, 2% skimmed milk powder (2% MPBS).
Background: ELISA stands for enzyme-linked immunosorbent assay.

The target of another test is T2, CD27-Fc (human, UniProt P26842 20-191).
T2 construct: extracellular domain; hinge included for covalent assembly; also called CD27 receptor-Fc fusion protein; not shown: human Fc gamma 1 region including the hinge region
T2 sequence (looked up): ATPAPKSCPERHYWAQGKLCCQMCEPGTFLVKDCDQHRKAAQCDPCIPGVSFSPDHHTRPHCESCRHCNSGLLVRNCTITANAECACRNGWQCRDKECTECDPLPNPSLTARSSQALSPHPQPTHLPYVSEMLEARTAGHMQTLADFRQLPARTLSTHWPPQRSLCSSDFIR
The test is described as follows: ELISA, coated receptor-Fc. How it is done:
as §1

The next test concerns the target T3, 4-1BB-Fc (human, UniProt Q07011 24-186).
T3 construct: extracellular domain; hinge included for covalent assembly; also called 4-1BB receptor-Fc fusion protein; not shown: human Fc gamma 1 region including the hinge region
Put plainly: ELISA, coated receptor-Fc.

The text below walks through data of patent US20190276511A1 (BIONTECH RNA PHARMACEUTICALS, published 2019).

What is called EC50 is the concentration needed to bring the measured effect to its halfway point. A high value points to a need for much substance.

Chain of CD40 receptor on cells (P25942 21-277): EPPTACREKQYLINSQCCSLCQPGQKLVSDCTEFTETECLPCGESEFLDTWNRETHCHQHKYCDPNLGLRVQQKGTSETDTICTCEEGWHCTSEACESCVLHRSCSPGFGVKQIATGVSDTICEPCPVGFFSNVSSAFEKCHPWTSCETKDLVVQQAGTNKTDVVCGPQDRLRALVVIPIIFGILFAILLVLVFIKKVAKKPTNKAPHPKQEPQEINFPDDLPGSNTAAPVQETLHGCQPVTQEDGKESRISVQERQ
T1 sequence (P25942 21-193 limits assumed): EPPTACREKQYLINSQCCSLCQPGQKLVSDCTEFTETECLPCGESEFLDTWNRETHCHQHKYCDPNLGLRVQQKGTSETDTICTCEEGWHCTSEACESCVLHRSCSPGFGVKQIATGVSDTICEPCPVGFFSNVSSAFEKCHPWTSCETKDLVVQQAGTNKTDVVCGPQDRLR

B1: scCD40L-EHD2-scCD27L (ligand)
chain: GDQNPQIAAHVISEASSKTTSVLQWAEKGYYTMSNNLVTLENGKQLTVKRQGLYYIYAQVTFCSNREASSQAPFIASLCLKSPGRFERILLRAANTHSSAKPCGQQSIHLGGVFELQPGASVFVNVTDPSQVSHGTGFTSFGLLKLGGGSGGGGDQNPQIAAHVISEASSKTTSVLQWAEKGYYTMSNNLVTLENGKQLTVKRQGLYYIYAQVTFCSNREASSQAPFIASLCLKSPGRFERILLRAANTHSSAKPCGQQSIHLGGVFELQPGASVFVNVTDPSQVSHGTGFTSFGLLKLGGGSGGGGDQNPQIAAHVISEASSKTTSVLQWAEKGYYTMSNNLVTLENGKQLTVKRQGLYYIYAQVTFCSNREASSQAPFIASLCLKSPGRFERILLRAANTHSSAKPCGQQSIHLGGVFELQPGASVFVNVTDPSQVSHGTGFTSFGLLKLGGSGGDFTPPTVKILQSSCDGGGHFPPTIQLLCLVSGYTPGTINITWLEDGQVMDVDLSTASTTQEGELASTQSELTLSQKHWLSDRTYTCQVTYQGHTFEDSTKKCADSNGGSGGSLGWDVAELQLNHTGPQQDPRLYWQGGPALGRSFLHGPELDKGQLRIHRDGIYMVHIQVTLAICSSTTASRHHPTTLAVGICSPASRSISLLRLSFHQGCTIASQRLTPLARGDTLCTNLTGTLLPSRNTDETFFGVQWVRPGGGSGGGSLGWDVAELQLNHTGPQQDPRLYWQGGPALGRSFLHGPELDKGQLRIHRDGIYMVHIQVTLAICSSTTASRHHPTTLAVGICSPASRSISLLRLSFHQGCTIASQRLTPLARGDTLCTNLTGTLLPSRNTDETFFGVQWVRPGGGSGGGSLGWDVAELQLNHTGPQQDPRLYWQGGPALGRSFLHGPELDKGQLRIHRDGIYMVHIQVTLAICSSTTASRHHPTTLAVGICSPASRSISLLRLSFHQGCTIASQRLTPLARGDTLCTNLTGTLLPSRNTDETFFGVQWVRP
notes: From HEK293; Ig kappa leader left out; dimer through EHD2, about 50% covalently linked, SEC major peak at monomer size; also called EHD2-scDuokine scCD40L-EHD2-scCD27L; not shown: N-terminal FLAG tag
For B1, the “Receptor activation (EC50, nM), IL-8 release from HT1080 cells” value with CD40 receptor on cells came to 2 nM. Besides, the EC50 in the test with CD40-Fc is 4.05 nM; with CD27-Fc, 2.03 nM. In addition, in the test with 4-1BB-Fc, the binding result is on record as “no binding (tested: 100 nM (FIG. 16))”.
